Consider one substance from patent US8021646B2, “Compositions and methods for magnetic resonance imaging contrast agents” (Northwestern University, priority 2006, dated 2011).

No end group written: not given here.

This data set in a line: Solubility of protein polymers. The data set is classed as physicochemical. The text has this: In order to both increase solubility of the protein backbone in organic solvents and to include a better enzymatic transglutaminase substrate for conjugation to chelators, a phenylalanine amino acid (F) will be added to the random coil backbone, resulting in GFKAGTGSA (SEQ ID NO: 4). It is contemplated that this protein structure will not form a particular secondary structure, behaving as a random coil in an aqueous solution. As indicated by the monomer sequence, the lysines are spaced every nine amino acids, which is still an optimal interval for a high concentration of Gd chelators, but still allowing enough room to prevent steric hindrance. […] It is contemplated that proteins including various amounts of leucines, a hydrophobic residue that is high on the hydropathy scale, provides novel protein polymers useful in the present invention that are both water and organo-soluble.
However, a protein soluble in organic solvents would allow coupling in N-methyl-pyrrolidone (NMP) using a peptide coupling agent such as Bromo-tris-pyrrolidinophosphoniumhexafluorophosphate (PyBroP) or 2-(IH-7-Azabenzotriazol-1-yl)-1,1,3,3-tetramethyluroniumhexafluorophosphate Methanaminium (HATU) in diisopropylethylamine (DIEA). Two equivalents of the chelator and at least 2:1 equivalents of the peptide-coupling agent will be used for each lysine site. […]

Take “GFKAGTGSA: protein polymer with monomer GFKAGTGSA (SEQ ID NO: 4), phenylalanine added to the random coil backbone (also: repeated monomer polymer)”: the solubility in water entry is “only soluble in water at high pH”. Where the note is “organic solvents”, the solubility in organics result is given as “not soluble in organics”.
